According to the supplement of paper PMC7877785:
± gives the uncertainty stated by the source.

Assay: self-splicing fitness, log relative to wild type (ln ratio); higher = more splicing; Tetrahymena group I intron in knt gene, E. coli kanamycin selection, DiMSum; sequences stand for … in CUCUCU…GGAGGGAAAAGUUAUCAGGCAUGCACCUGGUAGCUAGUCUUUAAACCAAUAGAUUGCAUCGGUUUAAAAGGCAAGACCGUCAAAUUGCGGGAAAGGGGUCAACAGCCGUUCAGUACCAAGUCUCAGGGGAAACUUUGAGAUGGCCUUGCAAAGGGUAUGGUAAUAAGCUGACGGACAUGGUCCUAACCACGCAGCCAAGUCCUAAGUCAACAGAUCUUCUGUUGAUAUGGAUGCAGUUCACAGACUAAAUGUCGGUCGGGGAAGAUGUAUUCUUCUCAUAAGAUAUAGUCGGACCUCUCCUUAAUGGGAGCUAGCGGAUGAAGUGAUGCAACACUGGAGCCGCUGGGAACUAAUUUGUAUGCGAAAGUAUAUUGAUUAGUUUUGGAGUACUCGUGGUCG
Summary of the method: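 Pooled colonies went to amplicon sequencing on an Illumina HiSeq 2500 after six replicate transformations. The plates were LB agar with 100 μg/mL carbenicillin, 50 μM IPTG and 0.2% rhamnose, with or without 25 μg/mL kanamycin, incubated overnight at 37°C or 30°C. The E. coli BL21(DE3) library had all eight P1ex-region intron nucleotides randomised, the intron placed in the knt kanamycin-resistance gene on pET-22b(+). DiMSum fitness is the error-weighted combination of replicate fold changes, kanamycin against none, normalised to wild type.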

Sequence	self-splicing fitness (ln) (30 °C)	self-splicing fitness (ln) (37 °C)
GACUAGCAAUAUUACGUCAA	-2.55 ± 0.16	-2 ± 0.12
AAAAAGCAAUAUUACGCCUC		-1.18 ± 0.22
AGAGAGCAAUAUUACGCUUU	-3.54 ± 0.41	-2.52 ± 0.45
CAGGAGCAAUAUUACGUUCA	-2.89 ± 0.12	-3.54 ± 0.2
CACGAGCAAUAUUACGGUUU	-3.79 ± 0.33	-2.93 ± 0.36
GAUCAGCAAUAUUACGGAGG	-3.86 ± 0.24	-1.82 ± 0.15
UCUCAGCAAUAUUACGCGUC	-3.62 ± 0.27	-2.81 ± 0.29
GAAUAGCAAUAUUACGUUGG	-3.3 ± 0.16	-2.77 ± 0.2
UAAGAGCAAUAUUACGGCAU	-2.3 ± 0.39	-1 ± 0.3
GCUAAGCAAUAUUACGUGUU	-1.78 ± 0.072	-0.774 ± 0.093
CACGAGCAAUAUUACGGAGC	-2.87 ± 0.44	-0.87 ± 0.19
CUGUAGCAAUAUUACGACCG	-0.99 ± 0.34	0.0218 ± 0.25
CUAGAGCAAUAUUACGCUGG		-2.1 ± 0.33
AGUGAGCAAUAUUACGUUGA	-2.51 ± 0.13	-2.75 ± 0.2
UUACAGCAAUAUUACGCCCU	-2.55 ± 0.24	-0.401 ± 0.26
GGGGAGCAAUAUUACGCAGA		-2.07 ± 0.47
GCAUAGCAAUAUUACGUCUC	-1.85 ± 0.14	-0.552 ± 0.11
GAAUAGCAAUAUUACGCGUC	-1.98 ± 0.23	0.15 ± 0.32
UAGAAGCAAUAUUACGACUC	-0.192 ± 0.12	-0.013 ± 0.16
AGCUAGCAAUAUUACGGCGG	-1.13 ± 0.12	-0.547 ± 0.14
UGCUAGCAAUAUUACGGGAA	-1.83 ± 0.15	-0.95 ± 0.16
GCUCAGCAAUAUUACGACAA	-1.6 ± 0.15	-1.42 ± 0.21
GGCGAGCAAUAUUACGGGGC	-3.65 ± 0.29	-2.96 ± 0.34
AUACAGCAAUAUUACGCUCU	0.359 ± 0.13	0.358 ± 0.16
CACGAGCAAUAUUACGGAUG	-3.35 ± 0.16	-2.47 ± 0.16

Sequence	self-splicing fitness (ln) (30 °C)	self-splicing fitness (ln) (37 °C)
AGUAAGCAAUAUUACGCGUA	-1.73 ± 0.15	-0.118 ± 0.16
AUGGAGCAAUAUUACGUAUC	-3.83 ± 0.47	-1.67 ± 0.24
GGCGAGCAAUAUUACGAACU	-1.3 ± 0.16	0.292 ± 0.18
UGAGAGCAAUAUUACGAGUA	-2.37 ± 0.49	-2.16 ± 0.46
UGCGAGCAAUAUUACGUACU	-2.58 ± 0.24	-1.23 ± 0.22
CACAAGCAAUAUUACGUCCU	-1.84 ± 0.12	-1.05 ± 0.15
GCUCAGCAAUAUUACGGCGA	-1.73 ± 0.12	-1.36 ± 0.19
GGAGAGCAAUAUUACGAACA		-1.93 ± 0.22
CUCCAGCAAUAUUACGUAUU	-4.45 ± 0.15	-3.21 ± 0.18
UAAUAGCAAUAUUACGCAAC	-2.64 ± 0.4	-1.73 ± 0.37
GCUUAGCAAUAUUACGGAUC	-0.319 ± 0.092	0.437 ± 0.11
GCAAAGCAAUAUUACGAGAG	-2.7 ± 0.095	-1.89 ± 0.12
CGGCAGCAAUAUUACGUUGU	-2.18 ± 0.11	-2.68 ± 0.19
GGCGAGCAAUAUUACGUGUA	-2.41 ± 0.15	-1.16 ± 0.14
GACUAGCAAUAUUACGUGAU	-1.83 ± 0.078	-0.383 ± 0.087
GAUUAGCAAUAUUACGUCGC	-1.91 ± 0.15	-0.838 ± 0.16
GUUCAGCAAUAUUACGAGAG	-0.895 ± 0.12	-0.725 ± 0.12
AGAAAGCAAUAUUACGCAUA	-2.44 ± 0.16	-1.19 ± 0.16
CUUCAGCAAUAUUACGUCAC		-1.41 ± 0.19
CGGAAGCAAUAUUACGGGGG	-3.72 ± 0.13	-3.16 ± 0.13
AUCAAGCAAUAUUACGAGGC	-3.86 ± 0.21	-2.57 ± 0.2
AGAAAGCAAUAUUACGGCCG	-0.348 ± 0.11	-0.28 ± 0.14
UUCCAGCAAUAUUACGAUGU	-3.24 ± 0.12	-2.22 ± 0.16
UAAAAGCAAUAUUACGAUCC	-2.13 ± 0.34	-2.05 ± 0.27
GUACAGCAAUAUUACGUCGA	-2.07 ± 0.11	-1.78 ± 0.12

Sequence	self-splicing fitness (ln) (30 °C)	self-splicing fitness (ln) (37 °C)
AAAGAGCAAUAUUACGUUCC	-3.94 ± 0.31	-2.49 ± 0.29
GGCUAGCAAUAUUACGCCCU		0.0828 ± 0.36
CAAUAGCAAUAUUACGAAGG	-1.86 ± 0.095	-0.211 ± 0.13
CUCUAGCAAUAUUACGUAUA	-2.7 ± 0.3	-2.84 ± 0.25
AUCCAGCAAUAUUACGGUCU	-0.68 ± 0.053	-0.109 ± 0.074
AUCCAGCAAUAUUACGGCCA	-0.362 ± 0.071	-0.298 ± 0.084
UGUAAGCAAUAUUACGUACA	-0.772 ± 0.098	-0.557 ± 0.16
UACAAGCAAUAUUACGGCUC	-1.46 ± 0.088	-0.468 ± 0.11
GAGGAGCAAUAUUACGAUGU	-3.29 ± 0.33	-2.69 ± 0.32
GGUGAGCAAUAUUACGAUCC		-0.766 ± 0.35
CACAAGCAAUAUUACGCGUG	-2.76 ± 0.16	-2.24 ± 0.22
UGGCAGCAAUAUUACGGCUA	-0.191 ± 0.15	-0.128 ± 0.19
UAACAGCAAUAUUACGGUCU	-1.5 ± 0.068	-0.783 ± 0.075
AUAAAGCAAUAUUACGCGUA	-0.873 ± 0.079	-0.0465 ± 0.091
AACGAGCAAUAUUACGCAAG	-3.43 ± 0.19	-2.19 ± 0.19
AAUGAGCAAUAUUACGUACC		-2.85 ± 0.27
CGACAGCAAUAUUACGCACG	-3.74 ± 0.4	-2.31 ± 0.35
UCCCAGCAAUAUUACGCUGG	-3.94 ± 0.16	-2.62 ± 0.16
UUCCAGCAAUAUUACGGACA	-0.469 ± 0.068	-0.0722 ± 0.077
AUCUAGCAAUAUUACGUUGG	-3.4 ± 0.19	-1.88 ± 0.19
GGCCAGCAAUAUUACGAGAG	-3.27 ± 0.24	-2.52 ± 0.25
AUUGAGCAAUAUUACGAGCG	-3.1 ± 0.27	
GGACAGCAAUAUUACGUUAC	-2.86 ± 0.2	-2.49 ± 0.26
GCACAGCAAUAUUACGUUAA	-1.04 ± 0.055	-0.544 ± 0.065
CGUGAGCAAUAUUACGUCAA	-2.01 ± 0.24	-1.35 ± 0.2

Sequence	self-splicing fitness (ln) (30 °C)	self-splicing fitness (ln) (37 °C)
CGAAAGCAAUAUUACGGUGU	-2.55 ± 0.088	-1.66 ± 0.11
UGAUAGCAAUAUUACGUUUU	-3.75 ± 0.16	-1.85 ± 0.14
AAUUAGCAAUAUUACGGGAU	-2.28 ± 0.22	-1.37 ± 0.2
UAGGAGCAAUAUUACGUGUU	-2.97 ± 0.13	-2.51 ± 0.17
ACCGAGCAAUAUUACGGACU	-0.27 ± 0.073	0.614 ± 0.1
AACGAGCAAUAUUACGAAAU	-3.74 ± 0.29	-2.26 ± 0.21
CCUUAGCAAUAUUACGGUGG	-2.71 ± 0.15	-1.36 ± 0.15
GUUAAGCAAUAUUACGACUG	-2.57 ± 0.2	-2.53 ± 0.4
UGAUAGCAAUAUUACGCUGG	-1.15 ± 0.11	-0.645 ± 0.12
ACCUAGCAAUAUUACGCAGG	-3.34 ± 0.23	-2.73 ± 0.26
GGAUAGCAAUAUUACGGGUG	-2.79 ± 0.33	-0.239 ± 0.17
AGACAGCAAUAUUACGACGC	-0.912 ± 0.086	-0.726 ± 0.11
CGAUAGCAAUAUUACGCACC	-2.55 ± 0.15	-1.09 ± 0.16
AGGCAGCAAUAUUACGGUGA	-1.37 ± 0.14	-0.711 ± 0.11
UGAUAGCAAUAUUACGCUAU	-3.98 ± 0.47	-2.04 ± 0.27
CAGUAGCAAUAUUACGAGCG	-0.475 ± 0.087	0.263 ± 0.12
GACCAGCAAUAUUACGUCAA	-2.51 ± 0.18	-1.06 ± 0.1
AGCGAGCAAUAUUACGUUAC	-3.84 ± 0.21	-2.26 ± 0.23
CGGGAGCAAUAUUACGUAGU		-1.78 ± 0.29
GCAGAGCAAUAUUACGCCUA		-2.09 ± 0.3
ACAUAGCAAUAUUACGUCGU	-2.92 ± 0.11	-2.33 ± 0.13
AACUAGCAAUAUUACGGCGG	-1.21 ± 0.087	-0.787 ± 0.11
UUAGAGCAAUAUUACGGAUU	-3.74 ± 0.28	-2.48 ± 0.27
